Experimental data reported in PMC9352680, “A comprehensive thermodynamic model for RNA binding by the Saccharomyces cerevisiae Pumilio protein PUF4”.

T1: PUF4 RNA-binding domain (Saccharomyces cerevisiae, UniProt P25339 537-888)
T1 sequence: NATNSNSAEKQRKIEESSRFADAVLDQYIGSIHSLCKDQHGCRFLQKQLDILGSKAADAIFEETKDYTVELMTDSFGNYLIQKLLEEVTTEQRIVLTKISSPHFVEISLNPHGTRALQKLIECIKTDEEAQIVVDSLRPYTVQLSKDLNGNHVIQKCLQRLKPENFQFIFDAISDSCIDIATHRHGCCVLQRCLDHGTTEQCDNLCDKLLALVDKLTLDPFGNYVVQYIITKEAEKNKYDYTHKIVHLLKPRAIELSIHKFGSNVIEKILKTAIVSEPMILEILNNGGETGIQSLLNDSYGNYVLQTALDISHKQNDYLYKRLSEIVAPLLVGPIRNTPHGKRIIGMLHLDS


target: T1, PUF4 RNA-binding domain; test: Mg; RNA-MaP; 20 mM Na-HEPES pH 7.4, 30 mM KOAc, 0.75 mM MgCl2, 0.1% Tween-20, 5% glycerol, 0.1 mg/mL BSA, 2 mM DTT; 25 C; 0.0125-409.6 nM protein; conditions: tags: N-His6-TEV cleaved; C-SNAP kept, Cy3B-labelled; label: tethered on chip by stalled RNA polymerase

Q: Which Kd does the source give for ACAAACCAUAUAUUAUUAAAACAAAC (ssRNA) [Id_ii_S3_P5E.3_K5.2_C5.2_[T-1A]_H5.2_A5.1_F5.1_T5.2_[T11A]] here?
A: 631 nM

Q: For ACAAACGGACACUUAUUAGCACAAAC (ssRNA) [Id_ii_S3_P5E.4_K5.3_C5.2_[C-2G]_[T-1G]_H5.3_A5.1_F5.1_T5.2_[T11G]_[A12C]], which Kd is on record?
A: > 2300 nM

Q: For ACAAACACUAUAUUAUUAUCACAAAC (ssRNA) [Id_ii_S3_P5E.3_K5.2_C5.2_[C-2A]_[T-1C]_H5.2_A5.1_F5.1_T5.2_[A12C]], which Kd is on record?
A: 370 nM

Q: How did the Kd turn out when ACAAACCAUAUAUUAUUAACACAAAC (ssRNA) [Id_ii_S3_P5E.3_K5.2_C5.2_[T-1A]_H5.2_A5.1_F5.1_T5.2_[T11A]_[A12C]] was run?
A: 201 nM

Q: UCUCUUUCUGUUAUUAUCUCUU (ssRNA) [Ib_S1_P5E.1_K5.1_C5.1_H5.1_[G2C]_[A4G]_A5.1_F5.1_T5.1] was tested. Which Kd did it give?
A: > 2300 nM

Q: ACAAACAUUAUAUUAUUACAACAAAC (ssRNA) [Id_ii_S3_P5E.3_K5.2_C5.2_[C-2A]_H5.2_A5.1_F5.1_T5.2_[T11C]] was tested. Which Kd did it give?
A: 464 nM

Q: How did the Kd turn out when ACAAACAUUAUAUUAUUAGAACAAAC (ssRNA) [Id_ii_S3_P5E.3_K5.2_C5.2_[C-2A]_H5.2_A5.1_F5.1_T5.2_[T11G]] was run?
A: 144 nM

Q: Which Kd does the source give for ACAAACGGACACUUAUUAAGACAAAC (ssRNA) [Id_ii_S3_P5E.4_K5.3_C5.2_[C-2G]_[T-1G]_H5.3_A5.1_F5.1_T5.2_[T11A]_[A12G]] here?
A: > 2300 nM

Q: With ACAAACGGACACUUAUUACAACAAAC (ssRNA) [Id_ii_S3_P5E.4_K5.3_C5.2_[C-2G]_[T-1G]_H5.3_A5.1_F5.1_T5.2_[T11C]] as the binder, how does the Kd read?
A: > 2300 nM

Q: UCUCUUCGUGUUAUUAUCUCUU (ssRNA) [Ib_S1_P5E.1_K5.1_C5.1_H5.1_[T1C]_[A4G]_A5.1_F5.1_T5.1] was tested. Which Kd did it give?
A: 2300 nM

Q: ACAAACAAUAUAUUAUUAUCACAAAC (ssRNA) [Id_ii_S3_P5E.3_K5.2_C5.2_[C-2A]_[T-1A]_H5.2_A5.1_F5.1_T5.2_[A12C]] was tested. Which Kd did it give?
A: 576 nM

Q: How did the Kd turn out when ACAAACGUACACUUAUUACCACAAAC (ssRNA) [Id_ii_S3_P5E.4_K5.3_C5.2_[C-2G]_H5.3_A5.1_F5.1_T5.2_[T11C]_[A12C]] was run?
A: 972 nM

Q: How did the Kd turn out when ACAAACAAUAUAUUAUUAGUACAAAC (ssRNA) [Id_ii_S3_P5E.3_K5.2_C5.2_[C-2A]_[T-1A]_H5.2_A5.1_F5.1_T5.2_[T11G]_[A12T]] was run?
A: 118 nM

Q: ACAAACAAUAUAUUAUUAAAACAAAC (ssRNA) [Id_ii_S3_P5E.3_K5.2_C5.2_[C-2A]_[T-1A]_H5.2_A5.1_F5.1_T5.2_[T11A]] was tested. Which Kd did it give?
A: 550 nM

Q: ACAAACGUACACUUAUUAUCACAAAC (ssRNA) [Id_ii_S3_P5E.4_K5.3_C5.2_[C-2G]_H5.3_A5.1_F5.1_T5.2_[A12C]] was tested. Which Kd did it give?
A: 1180 nM

Q: Which Kd does the source give for ACAAACGCACACUUAUUAUAACAAAC (ssRNA) [Id_ii_S3_P5E.4_K5.3_C5.2_[C-2G]_[T-1C]_H5.3_A5.1_F5.1_T5.2] here?
A: > 2300 nM

Q: How did the Kd turn out when UCUCUUAGUGUUAUUAUCUCUU (ssRNA) [Ib_S1_P5E.1_K5.1_C5.1_H5.1_[T1A]_[A4G]_A5.1_F5.1_T5.1] was run?
A: > 2300 nM

Q: With ACAAACGAACACUUAUUAACACAAAC (ssRNA) [Id_ii_S3_P5E.4_K5.3_C5.2_[C-2G]_[T-1A]_H5.3_A5.1_F5.1_T5.2_[T11A]_[A12C]] as the binder, how does the Kd read?
A: > 2300 nM

Q: Which Kd does the source give for ACAAACGUACACUUAUUAUUACAAAC (ssRNA) [Id_ii_S3_P5E.4_K5.3_C5.2_[C-2G]_H5.3_A5.1_F5.1_T5.2_[A12T]] here?
A: 702 nM

Q: How did the Kd turn out when ACAAACACUAUAUUAUUACAACAAAC (ssRNA) [Id_ii_S3_P5E.3_K5.2_C5.2_[C-2A]_[T-1C]_H5.2_A5.1_F5.1_T5.2_[T11C]] was run?
A: 459 nM

Q: For ACAAACAAUAUAUUAUUAAUACAAAC (ssRNA) [Id_ii_S3_P5E.3_K5.2_C5.2_[C-2A]_[T-1A]_H5.2_A5.1_F5.1_T5.2_[T11A]_[A12T]], which Kd is on record?
A: 614 nM

Q: Which Kd does the source give for ACAAACAUUAUAUUAUUAGGACAAAC (ssRNA) [Id_ii_S3_P5E.3_K5.2_C5.2_[C-2A]_H5.2_A5.1_F5.1_T5.2_[T11G]_[A12G]] here?
A: 94.3 nM

Q: How did the Kd turn out when ACAAACGAACACUUAUUAUCACAAAC (ssRNA) [Id_ii_S3_P5E.4_K5.3_C5.2_[C-2G]_[T-1A]_H5.3_A5.1_F5.1_T5.2_[A12C]] was run?
A: > 2300 nM

Q: For ACAAACCCUAUAUUAUUACUACAAAC (ssRNA) [Id_ii_S3_P5E.3_K5.2_C5.2_[T-1C]_H5.2_A5.1_F5.1_T5.2_[T11C]_[A12T]], which Kd is on record?
A: 400 nM

Q: Which Kd does the source give for ACAAACCCUAUAUUAUUAAUACAAAC (ssRNA) [Id_ii_S3_P5E.3_K5.2_C5.2_[T-1C]_H5.2_A5.1_F5.1_T5.2_[T11A]_[A12T]] here?
A: 464 nM

Q: With ACAAACCGUAUAUUAUUAGAACAAAC (ssRNA) [Id_ii_S3_P5E.3_K5.2_C5.2_[T-1G]_H5.2_A5.1_F5.1_T5.2_[T11G]] as the binder, how does the Kd read?
A: 15.8 nM

Q: With ACAAACGCACACUUAUUAAGACAAAC (ssRNA) [Id_ii_S3_P5E.4_K5.3_C5.2_[C-2G]_[T-1C]_H5.3_A5.1_F5.1_T5.2_[T11A]_[A12G]] as the binder, how does the Kd read?
A: > 2300 nM

Q: ACAAACGCACACUUAUUAAAACAAAC (ssRNA) [Id_ii_S3_P5E.4_K5.3_C5.2_[C-2G]_[T-1C]_H5.3_A5.1_F5.1_T5.2_[T11A]] was tested. Which Kd did it give?
A: > 2300 nM

Q: UCUCUUUGUAAUAUUAUCUCUU (ssRNA) [Ia_S1_P5E.1_K5.1_C5.1_H5.1_A5.1_[T5A]_F5.1_T5.1] was tested. Which Kd did it give?
A: 6.33 nM

Q: Which Kd does the source give for ACAAACCAUAUAUUAUUACUACAAAC (ssRNA) [Id_ii_S3_P5E.3_K5.2_C5.2_[T-1A]_H5.2_A5.1_F5.1_T5.2_[T11C]_[A12T]] here?
A: 168 nM

Q: Which Kd does the source give for ACAAACCAUAUAUUAUUAAUACAAAC (ssRNA) [Id_ii_S3_P5E.3_K5.2_C5.2_[T-1A]_H5.2_A5.1_F5.1_T5.2_[T11A]_[A12T]] here?
A: 157 nM

Q: For ACAAACAAUAUAUUAUUAACACAAAC (ssRNA) [Id_ii_S3_P5E.3_K5.2_C5.2_[C-2A]_[T-1A]_H5.2_A5.1_F5.1_T5.2_[T11A]_[A12C]], which Kd is on record?
A: 535 nM

Q: Which Kd does the source give for ACAAACCCUAUAUUAUUAAAACAAAC (ssRNA) [Id_ii_S3_P5E.3_K5.2_C5.2_[T-1C]_H5.2_A5.1_F5.1_T5.2_[T11A]] here?
A: 673 nM

Q: How did the Kd turn out when ACAAACCUUAUAUUAUUAGCACAAAC (ssRNA) [Id_ii_S3_P5E.3_K5.2_C5.2_H5.2_A5.1_F5.1_T5.2_[T11G]_[A12C]] was run?
A: 59.3 nM

Q: UCUCUUCGAAUUAUUAUCUCUU (ssRNA) [Ib_S1_P5E.1_K5.1_C5.1_H5.1_[T1C]_[T3A]_A5.1_F5.1_T5.1] was tested. Which Kd did it give?
A: > 2300 nM

Q: ACAAACACUAUAUUAUUAAGACAAAC (ssRNA) [Id_ii_S3_P5E.3_K5.2_C5.2_[C-2A]_[T-1C]_H5.2_A5.1_F5.1_T5.2_[T11A]_[A12G]] was tested. Which Kd did it give?
A: 626 nM

Q: How did the Kd turn out when ACAAACCUUAUAUUAUUAUUACAAAC (ssRNA) [Id_ii_S3_P5E.3_K5.2_C5.2_H5.2_A5.1_F5.1_T5.2_[A12T]] was run?
A: 208 nM

Q: Which Kd does the source give for ACAAACCUUAUAUUAUUAGAACAAAC (ssRNA) [Id_ii_S3_P5E.3_K5.2_C5.2_H5.2_A5.1_F5.1_T5.2_[T11G]] here?
A: 108 nM

Q: With ACAAACGUACACUUAUUAAUACAAAC (ssRNA) [Id_ii_S3_P5E.4_K5.3_C5.2_[C-2G]_H5.3_A5.1_F5.1_T5.2_[T11A]_[A12T]] as the binder, how does the Kd read?
A: 707 nM

Q: Which Kd does the source give for ACAAACGCACACUUAUUAUGACAAAC (ssRNA) [Id_ii_S3_P5E.4_K5.3_C5.2_[C-2G]_[T-1C]_H5.3_A5.1_F5.1_T5.2_[A12G]] here?
A: > 2300 nM

Q: With ACAAACCUUAUAUUAUUACGACAAAC (ssRNA) [Id_ii_S3_P5E.3_K5.2_C5.2_H5.2_A5.1_F5.1_T5.2_[T11C]_[A12G]] as the binder, how does the Kd read?
A: 406 nM

Q: With ACAAACACUAUAUUAUUAAAACAAAC (ssRNA) [Id_ii_S3_P5E.3_K5.2_C5.2_[C-2A]_[T-1C]_H5.2_A5.1_F5.1_T5.2_[T11A]] as the binder, how does the Kd read?
A: 485 nM

Q: With ACAAACCCUAUAUUAUUAACACAAAC (ssRNA) [Id_ii_S3_P5E.3_K5.2_C5.2_[T-1C]_H5.2_A5.1_F5.1_T5.2_[T11A]_[A12C]] as the binder, how does the Kd read?
A: 452 nM

Q: Which Kd does the source give for ACAAACCUUAUAUUAUUAAUACAAAC (ssRNA) [Id_ii_S3_P5E.3_K5.2_C5.2_H5.2_A5.1_F5.1_T5.2_[T11A]_[A12T]] here?
A: 459 nM

Q: For ACAAACACUAUAUUAUUACGACAAAC (ssRNA) [Id_ii_S3_P5E.3_K5.2_C5.2_[C-2A]_[T-1C]_H5.2_A5.1_F5.1_T5.2_[T11C]_[A12G]], which Kd is on record?
A: 493 nM

Q: With ACAAACCAUAUAUUAUUACAACAAAC (ssRNA) [Id_ii_S3_P5E.3_K5.2_C5.2_[T-1A]_H5.2_A5.1_F5.1_T5.2_[T11C]] as the binder, how does the Kd read?
A: 240 nM

Q: Which Kd does the source give for ACAAACGCACACUUAUUAGAACAAAC (ssRNA) [Id_ii_S3_P5E.4_K5.3_C5.2_[C-2G]_[T-1C]_H5.3_A5.1_F5.1_T5.2_[T11G]] here?
A: > 2300 nM

Q: Which Kd does the source give for ACAAACCCUAUAUUAUUACCACAAAC (ssRNA) [Id_ii_S3_P5E.3_K5.2_C5.2_[T-1C]_H5.2_A5.1_F5.1_T5.2_[T11C]_[A12C]] here?
A: 448 nM
